What was measured:
[1] = target: T1, cynomolgus monkey LY6K (R&D Systems) (cynomolgus monkey); assay: ELISA, coated antigen, IgG1 at 10 ug/ml
T1 construct: also called cyLY6K

human LY6E (R&D Systems) [2] = target: T2, human LY6E (R&D Systems) (human, UniProt Q16553 21-101, limits assumed); assay: ELISA, coated antigen, IgG1 at 10 ug/ml
T2 construct: also called hLY6E
T2 sequence (looked up): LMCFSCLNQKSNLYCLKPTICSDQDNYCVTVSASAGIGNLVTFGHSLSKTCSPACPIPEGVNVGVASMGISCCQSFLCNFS

rat LY6K (R&D Systems) = target: T3, rat LY6K (R&D Systems) (rat); assay: ELISA, coated antigen, IgG1 at 10 ug/ml
T3 construct: also called rLY6K

hLY6K-his = target: T4, hLY6K-his (human, UniProt Q17RY6 18-138, limits assumed); assay: SPR (Carterra LSA), mAb captured on anti-human IgG-Fc, antigen as analyte
T4 construct: not shown: his tag
T4 sequence: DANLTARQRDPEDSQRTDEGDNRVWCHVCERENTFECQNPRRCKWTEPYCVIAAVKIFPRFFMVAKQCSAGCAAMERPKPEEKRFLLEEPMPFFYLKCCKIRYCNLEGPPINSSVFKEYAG

hLY6K-mFc = target: T5, hLY6K-mFc (human, UniProt Q17RY6 18-138); assay: as above
T5 construct: not shown: mFc
T5 sequence: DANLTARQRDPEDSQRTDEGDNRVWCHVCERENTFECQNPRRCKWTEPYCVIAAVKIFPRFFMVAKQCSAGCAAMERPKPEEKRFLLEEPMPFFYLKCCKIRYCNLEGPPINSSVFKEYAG

human LY6E (R&D Systems) [3] = target: T2, human LY6E (R&D Systems); assay: ELISA, antigen coated on the plate, antibody as human IgG1, anti-human F(ab)2 HRPO
Ly6D = target: T6, Ly6D; assay: as above
T6 chain: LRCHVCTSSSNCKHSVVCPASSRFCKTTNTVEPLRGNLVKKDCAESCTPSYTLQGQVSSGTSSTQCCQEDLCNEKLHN

Ly6H = target: T7, Ly6H; assay: as above
T7 chain: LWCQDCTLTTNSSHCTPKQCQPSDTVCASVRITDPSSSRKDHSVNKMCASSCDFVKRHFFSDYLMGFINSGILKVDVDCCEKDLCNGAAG

Human LY6K (R&D Systems) = target: T8, Human LY6K (R&D Systems) (human, UniProt Q17RY6 18-138, limits assumed); assay: ELISA, coated antigen, IgG1 at 10 ug/ml
T8 construct: Bought from R&D Systems, coated on ELISA plates; also called hLY6K
T8 sequence: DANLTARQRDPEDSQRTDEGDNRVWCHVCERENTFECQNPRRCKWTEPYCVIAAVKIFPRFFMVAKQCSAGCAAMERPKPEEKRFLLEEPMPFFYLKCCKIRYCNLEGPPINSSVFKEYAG

cyLY6K-mFc = cyLY6K-mFc (cynomolgus monkey); assay: SPR (Carterra LSA), mAb captured on anti-human IgG-Fc, antigen as analyte

B1: anti-LY6K antibody 3743 (antibody, V domains shown)
VH: EVQLVESGGGLVHPGRSLRLSCAASGFTFDDYAMHWVRQAPGKGLEWVSGISWKSGRIDYADSVKGRFTISRDNAKNSLYLQMNSLRAEDTALYYCAKDRRELTFDIWGQGTMVTVSS
VL: DIVMTQTPLSSPVTLGQPASISCRSSQSLEHSNGNTYLSWLQQRPGQPPRLLIYKISNRFSGVPDRFSGSGAGTDFTLKISRVEAEDVGVYYCMQTTQFPLTFGGGTKVEIK
- % of maximum of commercial anti-LY6K mAb on human LY6K [1]: 3.5%
- % of maximum of commercial anti-LY6K mAb on human LY6K (human LY6E (R&D Systems) [2]): 5%
- % of maximum of commercial anti-LY6K mAb on human LY6K (rat LY6K (R&D Systems)): 2.6%

B2: anti-LY6K antibody 3056 (antibody, V domains shown)
VH: EVQLVESGGGLVQPGRSLRLSCAASGFTYDDYAMHWVRQVPGKGLEWVSGITWKKSIIGYADSVRGRFTVSRDSAKNSLYLQMSSLRVEDTALCYCAKDSTDGLDYWGQGTLVTVSS
VL: DIVMTQTPLSSPVTLGQPASLSCRSSQSLLHSNGNTYLSWLQQRPGQPPRLLIYKISNRFSGVPDRFSGSGAGTDFTLKISRVEGEDVGVYYCMQATEFPYTFGQGTKLEIK
notes: Has values only in SPR (CHO supernatant, captured by anti-human IgG-Fc)
- Kd (hLY6K-his): 0.472 nM
- Kd (hLY6K-mFc): 0.0233 nM

B3: anti-LY6K antibody 3063 (antibody, V domains shown)
VH: EVQLVESGGGLVKPGRSLRLSCAASGFTFDDFAMHWVRQAPGKGLEWVSGLSWKGHTLGYADSVKGRFTFSRDSAKNSLYLQMNSLRAEDTALYYCAKDTRSGLDYWGQGTLVTVSS
VL: DIVMTQTPLSSPVTLGQPASISCRSSQSLEHSDGNTYLSWLQQRPGQPPRLLIYKISNRFSGVPDRFSGNGAGTDFTLKISRVEAEDVGIYYCMQATEFPFTFGGGTKVEIK
- binding result (human LY6E (R&D Systems) [3]): no binding (tested: 10 µg/ml)
- binding result (Ly6D): no binding (tested: 10 µg/ml)
- binding result (Ly6H): no binding (tested: 10 µg/ml)
- % of maximum of commercial anti-LY6K mAb on human LY6K [1]: 2.6%
- % of maximum of commercial anti-LY6K mAb on human LY6K (human LY6E (R&D Systems) [2]): 4.2%
- % of maximum of commercial anti-LY6K mAb on human LY6K (rat LY6K (R&D Systems)): -0.2%

B4: anti-LY6K antibody 3518 (antibody, V domains shown)
VH: EVQLVESGGGLVQPGGSLKLSCAASGFTFSGSAMNWVRQASGKGLEWVGRIRSKANSYATAYAASLKGRFTISRDDSKNTAYLQMNSLKTEDTAVYYCTVTPFDYWGQGTLVTVSS
VL: DIQMTQSPSSLSASVGDRVTITCQASQDISNHLNWYQQKPGKAPKLLINDASNLETGVPSRFSGSGSGTDFTFTISSLQPEDIATYYCQQYDNVPYTFGQGTKLEIK
- % of maximum of commercial anti-LY6K mAb on human LY6K [1]: 2.7%
- % of maximum of commercial anti-LY6K mAb on human LY6K (human LY6E (R&D Systems) [2]): 2.1%
- % of maximum of commercial anti-LY6K mAb on human LY6K (rat LY6K (R&D Systems)): 2.1%

B5: anti-LY6K antibody 3719 (antibody, V domains shown)
VH: EVQLVESGGGLVQPGRSLRLSCTASGFTFNDYAMHWVRQAPGKGLEWVSGISWNSNNIDYADSVKGRFTISRDNAKNSLYMQMNSLRAEDTALYYCAKDGPGTTNDAFDIWGQGTMVTVSS
VL: DIQMTQSPSSLSASVGDRVTITCRASHSISSYLNWYQQKPGKAPKLLIYAASSLQSGVPSRFSGSGSGTDFTLTISSLQPEDFATYYCHQGYSTPLTFGGGTKVEIK
- binding result (human LY6E (R&D Systems) [3]): no binding (tested: 10 µg/ml)
- binding result (Ly6D): no binding (tested: 10 µg/ml)
- binding result (Ly6H): no binding (tested: 10 µg/ml)
- % of maximum of commercial anti-LY6K mAb on human LY6K [1]: 0.8%
- % of maximum of commercial anti-LY6K mAb on human LY6K (human LY6E (R&D Systems) [2]): 4.2%
- % of maximum of commercial anti-LY6K mAb on human LY6K (rat LY6K (R&D Systems)): -1.7%

B6: anti-LY6K antibody 3501 (antibody, V domains shown)
VH: EVQLVESGGGLVQPGRSLRLSCAASGFTFDDYAMHWVRQAPGKGLEWVSGISWNSGTIDYADSVKGRFTISRDNAKNSLYLQVNSLRAEDTALYYCAKDSPQKDYYYMDVWGKGTTVTVSS
VL: DIQMTQSPSSLSASVGDRVTITCRTSQSISSYLNWYQQKPGKAPNLLIYAASSLQSGVPSRFSGSGSGTDFTLTISSLQPEDFATYYCQQSYITPITFGQGTRLEIK
- binding result (human LY6E (R&D Systems) [3]): no binding (tested: 10 µg/ml)
- binding result (Ly6D): no binding (tested: 10 µg/ml)
- binding result (Ly6H): no binding (tested: 10 µg/ml)
- % of maximum of commercial anti-LY6K mAb on human LY6K [1]: 2%
- % of maximum of commercial anti-LY6K mAb on human LY6K (human LY6E (R&D Systems) [2]): 4.3%
- % of maximum of commercial anti-LY6K mAb on human LY6K (rat LY6K (R&D Systems)): 0.4%

B7: anti-LY6K antibody 3527 (antibody, V domains shown)
VH: EVQLVESGGGLVKPGGSLRLSCAASGFTFSSYSMNWVRQAPGKGLEWVSSISSTSSYIYYADSVKGRFTISRDNAKNSLYLQMNSLRAEDTAVYYCARSDYYDSGSYKNYYYYYMDVWGKGTTVTVSS
VL: DIQMTQSPSSLSASVGDRVTITCRTSQSISSYLNWFQQKPGKAPKVLIYAASSLQRGVPSRFSGSGSGTDFTLTISSLQPEDFATYYCQQSYSTPLTFGGGTKVEIK
- % of maximum of commercial anti-LY6K mAb on human LY6K [1]: 58%
- % of maximum of commercial anti-LY6K mAb on human LY6K (human LY6E (R&D Systems) [2]): 4.6%
- % of maximum of commercial anti-LY6K mAb on human LY6K (Human LY6K (R&D Systems)): 54.6%
- % of maximum of commercial anti-LY6K mAb on human LY6K (rat LY6K (R&D Systems)): 1.1%

B8: anti-LY6K antibody 3055 (antibody, V domains shown)
VH: EVQLVESGGGLVQPGRSLRLSCAASGFTFDDFAMHWVRQAPGKGLEWVSGISWNTGTIGYADSVKGRFTISRDNAKNSLYLQMNSLRAEDTALYYCAKDKGTTGFDYWGQGTLVTVSS
VL: DIQMTQSPSSVSASVGDRVTITCRASQGISRWLVWYQQKPGKAPKLLIYAASSLQSGVPSRFSGSGSGTDFTLTISSLQPEDFATYYCQQANSFPRTFGQGTRLEIK
- % of maximum of commercial anti-LY6K mAb on human LY6K [1]: 40.3%
- % of maximum of commercial anti-LY6K mAb on human LY6K (Human LY6K (R&D Systems)): 22.6%
- % of maximum of commercial anti-LY6K mAb on human LY6K (rat LY6K (R&D Systems)): 0.4%

B9: anti-LY6K antibody 3728 (antibody, V domains shown)
VH: EVQLVESGGGLVKPGGSLRLSCAASGFTFSDVWMSWVRQAPGKGLEWVGRIKSKTDGGRIDYAAPVKGRFTISRDDSKNTLYLQMNSLKTEDTAVYYCTTVPYSDYWGQGTLVTVSS
VL: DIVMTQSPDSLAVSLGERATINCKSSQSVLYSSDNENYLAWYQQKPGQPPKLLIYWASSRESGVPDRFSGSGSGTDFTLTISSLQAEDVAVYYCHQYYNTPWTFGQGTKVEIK
- % of maximum of commercial anti-LY6K mAb on human LY6K [1]: 110%
- % of maximum of commercial anti-LY6K mAb on human LY6K (human LY6E (R&D Systems) [2]): 1%
- % of maximum of commercial anti-LY6K mAb on human LY6K (Human LY6K (R&D Systems)): 96.4%
- % of maximum of commercial anti-LY6K mAb on human LY6K (rat LY6K (R&D Systems)): -1.3%
- Kd (hLY6K-his): 4.96 nM
- Kd (cyLY6K-mFc): 0.0786 nM
- Kd (hLY6K-mFc): 0.00734 nM

B10: anti-LY6K antibody 2659 (antibody, V domains shown)
VH: EVQLVESGGGLVQPGRSLRLSCAASGFTFDDYAMHWVRQAPGKGLEWVSGISWKSGIIGYADSVKGRFTISRDNAKNSLYLQMNSLRAEDTALYYCAKDSRTGLDYWGQGTLVTVSS
VL: not shown
notes: as for B2
- Kd (hLY6K-his): 6.13 nM
- Kd (hLY6K-mFc): 0.034 nM

B11: anti-LY6K antibody 3514 (antibody, V domains shown)
VH: QVQLVQSGAEVKKPGASVKVSCKASGYTFTSYGISWVRQATGQGLEWMGWMNPNSGNTGYAQKFQGRVTMTRNTSISTAYMELSSLRSEDTAVYYCRAAGYYYYYYYMDVWGKGTTVTVSS
VL: not shown
- % of maximum of commercial anti-LY6K mAb on human LY6K [1]: 2.6%
- % of maximum of commercial anti-LY6K mAb on human LY6K (human LY6E (R&D Systems) [2]): 2.9%
- % of maximum of commercial anti-LY6K mAb on human LY6K (rat LY6K (R&D Systems)): 0%

B12: anti-LY6K antibody 3553 (antibody, V domains shown)
VH: QVQLVQSGAEVKKPGASVKVSCKASGYTFTGYYMHWVRQAPGTGLDWMGWISPNSGGTNYAQKFQGRVTMTRDTSISTVYMELSRLRSDDTALYYCAREVGNYWGQGTLVTVSS
VL: DIQMTQSPTSLSTSVGDRVTITCQASQDIYNYLNWYQLKPGKAPKLLIYDASNLERGVTSRFSGSGSGTDFTFTISSLQPEDIATYYCQQYDSLPITFGQGTRLEIK
- % of maximum of commercial anti-LY6K mAb on human LY6K [1]: 28.9%
- % of maximum of commercial anti-LY6K mAb on human LY6K (human LY6E (R&D Systems) [2]): 5%
- % of maximum of commercial anti-LY6K mAb on human LY6K (Human LY6K (R&D Systems)): 26%
- % of maximum of commercial anti-LY6K mAb on human LY6K (rat LY6K (R&D Systems)): 2.4%

B13: anti-LY6K antibody 3102 (antibody, V domains shown)
VH: QVQLVQSGAEVKKPGASVKVSCKASGYTFTGYYIHWMRQAPGQGLEWMGWINPNSGGTNYAQNFQGRVTMTRDTSINTAYMELSRLKSDDTAVYYCAKESGSPWGQGTLVTVSS
VL: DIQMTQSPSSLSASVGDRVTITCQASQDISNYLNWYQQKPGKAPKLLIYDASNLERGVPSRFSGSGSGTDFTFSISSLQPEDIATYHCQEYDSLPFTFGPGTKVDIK
- % of maximum of commercial anti-LY6K mAb on human LY6K [1]: 40.1%
- % of maximum of commercial anti-LY6K mAb on human LY6K (human LY6E (R&D Systems) [2]): 3.8%
- % of maximum of commercial anti-LY6K mAb on human LY6K (Human LY6K (R&D Systems)): 38.4%
- % of maximum of commercial anti-LY6K mAb on human LY6K (rat LY6K (R&D Systems)): 0.2%

From US20260193375A1 (NORMUNITY, published 2026)
